Paper doi:10.1101/2021.01.30.428887
Where two headings read alike, the source gives them in different places.

Tests used:
Test in all cases: quadruple optical trap force measurement
[1] = target: Human vimentin C328N with three additional amino acids, GGC, at the C-terminus (human)
[2] = target: Human vimentin C328N with three additional amino acids, GGC, at the C-terminus (human); remark: listed apart in the source
[3] = target: Human vimentin C328N with three additional amino acids, GGC, at the C-terminus (human); remark: listed apart in the source
[4] = target: Human vimentin C328N with three additional amino acids, GGC, at the C-terminus (human); remark: listed apart in the source
[5] = target: Human vimentin C328N with three additional amino acids, GGC, at the C-terminus (human); remark: listed apart in the source
[6] = target: Human vimentin C328N with three additional amino acids, GGC, at the C-terminus (human); remark: listed apart in the source
[7] = target: Human vimentin C328N with three additional amino acids, GGC, at the C-terminus (human); remark: listed apart in the source

## Human vimentin C328N with three additional amino acids, GGC, at the C-terminus (natural protein)
[1]
  koff: 0.15 s⁻¹
[2]
  koff: 0.1 s⁻¹
[3]
  koff: 0.2 s⁻¹
[4]
  koff: 0.08 s⁻¹
[5]
  koff: 0.18 s⁻¹
  maximal interaction (rupture) force: 112 pN
[6]
  maximal interaction (rupture) force: 57 pN
[7]
  maximal interaction (rupture) force: 85 pN
